Experimental findings from patent US12383572B2, “Administration of an anti-activin-a compound to a subject” (AMGEN INC., priority 2013, dated 2025) are described below.

For one test, the target named is T1, activin-A (Mus musculus, UniProt Q04998).
T1 construct: from tissue; host or cells: serum of inhibin-α knockout (inh-KO) and wild-type mice
T1 sequence (Q04998 309-424): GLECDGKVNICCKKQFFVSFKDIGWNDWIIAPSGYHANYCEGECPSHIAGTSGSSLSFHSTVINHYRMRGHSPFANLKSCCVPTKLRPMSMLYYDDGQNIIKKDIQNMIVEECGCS
The experiment in a line: Serum activin-A ELISA in inh-KO mice with established gonadal tumors. The format is in vivo. To be noted: single injection 30 mg/kg SC. The procedure:
Inh-KO mice. 12-week-old female and 8-week-old male inh-KO mice with fully established ovarian or testicular tumors received a single injection of PBS or sActRIIB (30 mg/kg, SC). As a control, age-matched wild-type littermates received a single injection of PBS. Ovarian and testicular organ weights were determined by necropsy 14 days after the injection. All serum samples from ovarian cancer patients and healthy subjects were collected under informed consent and were purchased from Bioreclamation, Inc. The serum samples were diluted in buffer (DY995, R & D Systems) and pretreated overnight at 4° C. with 4 M urea (Sigma) to dissociate any protein bound to activin-A. The samples were then transferred to 96 well plates pre-coated with an activin-A monoclonal antibody. After 2 hr incubation at room temperature and a washing step (0.05% Tween 20 in DPBS), a biotin-labeled activin-A monoclonal antibody was added for 1 hr at room temperature. […] An acidic stopping solution (KPL) was added and the degree of enzymatic turnover of the substrate was determined by wavelength absorbance measurement at 450 nm. The absorbance measured is directly proportional to the concentration of activin-A present. A standard curve of absorbance versus activin-A concentration was used to determine the amount of Activin-A in the test sample. Serum activin-A levels in inh-KO mice were measured by using ELISA.
On the technique in general: ELISA stands for enzyme-linked immunosorbent assay.

For test [1], the system named is testicular tumors in inh-KO mice. The experiment in a line: Testicular tumor mass by necropsy in male inh-KO mice. The test is classed as in vivo, mouse. To be noted: 8-week-old male inh-KO mice, single injection 30 mg/kg SC, necropsy 14 days after. The procedure:
Inh-KO mice. 12-week-old female and 8-week-old male inh-KO mice with fully established ovarian or testicular tumors received a single injection of PBS or sActRIIB (30 mg/kg, SC). As a control, age-matched wild-type littermates received a single injection of PBS. Ovarian and testicular organ weights were determined by necropsy 14 days after the injection.

In the next test the test system is activin-A (βA) mRNA. The experiment in a line: Northern blot of activin-A (βA) mRNA in inh-KO tumors. The format is in vivo, mouse. To be noted: inh-KO mice, increase vs WT controls. The protocol:
Total RNA was isolated from individual tissue samples after homogenization in Trizol (Invitrogen). A pool of 10 μg RNA for each group containing equal amounts of total RNA isolated from individual animals was subjected to Northern blot analysis. The northern probes used for βA and Ang-2 were generated by using RT-PCR (Phusion, Biolabs). βA primer set: 5′-CCCTTGCTTTGGCTGAGAGGA-3′ (SEQ ID NO: 294) and 5′-TC ACA GGT CGT CGT AGG TCG-3′ (SEQ ID NO: 295); Ang-2 primer set: 5′-TGT GCC GGG GAG AAG AG (SEQ ID NO: 296) and 5′-TACAGTAGTGGGTTGAGGTTC-3′ (SEQ ID NO: 297). To normalize the expression, northern blot membranes were re-probed with β-actin.

The test system of test [2] is TOV-21G ovarian cancer xenografts. The experiment in a line: TOV-21G xenograft growth in nude mice, activin-A antagonists alone. The format is in vivo, human. To be noted: sActRIIB 30 mg/kg SC 1x/week, activin-A antibody 30 mg/kg SC 2x/week, from day 12, vs PBS. The procedure:
TOV-21G xenograft. 5×10^6 TOV-21G ovarian cancer cells were implanted subcutaneously into individual female athymic nu/nu mice (Harlan). Treatment was initiated at day 12 after tumor implantation, when the average tumor volume reached approximately 150 mm^3. The mice received PBS, sActRIIB (30 mg/kg, SC, 1×/week) or activin-A antibody (30 mg/kg, SC, 2×/week). In a separate chemotherapy combination experiment, the mice were treated with PBS, sActRIIB (10 mg/kg, SC, 1×/week), 5-FU (50 mg/kg, IP, 3 cycles, 4 daily injections per cycle) or sActRIIB and 5-FU combination at the same doses above. For all xenograft experiments, the tumor sizes were measured longitudinally by using an electronic caliper. Immediately prior to the 1st dose, the tumor-bearing mice were randomized to ensure even distribution in tumor sizes across different groups. Tumor volumes (mm^3) were calculated as tumor length (mm)×tumor width (mm)×tumor height (mm). Tumor weights were determined by necropsy.
A general note: A xenograft is tissue or cells of one species grown in another, often human tumour cells in immunodeficient mice.

The test system of test [3] is TOV-21G tumors (apoptosis). The experiment in a line: Active caspase-3 immunostaining and TUNEL assay on TOV-21G tumor sections. The test is classed as in vivo, human. To be noted: TOV-21G xenograft tumors. The procedure: Zinc-formalin fixed paraffin tumor tissue sections of 4 μm in thickness were prepared. The sections were subjected to antigen retrieval by microwave 3 min in Unmask solution (Vector H-3300) followed by incubation in 10 μg/ml Proteinase-K for 20 min and in 1% H2O2 in dH2O for 10 min at room temperature. The sections were further incubated in 0.1% Tween-20 in PBS for 3 min to permeabilize the cell membrane and in goat serum for 30 min to block non-specific binding. The sections were then incubated at room temperature with specific primary antibody for 3 hours followed by incubation in biotinylated or fluorescently labeled secondary antibody. Substrate developed in Vector SG kit (SK-4700) or DAB and nuclear-counterstained in Vector Fast Red (H-3403) or in hematoxylin. The immunostained tissue sections were analyzed and photographed using a Nikon Eclipse 90i microscope equipped with DS-Ril camera. […]
Cell apoptosis in TOV-21G tumors was analyzed by measuring the amounts of fragmented DNA in the tumor sections using the DeadEnd Fluorometric TUNEL System following the manufacturer's recommended protocols (Promega, G3250). The fluorescein-12-dUTP-labeled DNA was visualized by Nikon fluorescence microscopy.

B1: sActRIIB: extracellular domain of human activin type-2B receptor fused to IgG2 Fc; full length SEQ ID NO: 21 (Table 9) (protein, listed as Homo sapiens)
chain: ETRWCIYYNANWELERTNQSGLERCEGEQDKRLHCYASWRNSSGTIELVKKGCWLDDFNCYDRQECVATEENPQVYFCCCEGNFCNERFTHLPEAGGPEVTYEPPPTAPTGGGGSVECPPCPAPPVAGPSVFLFPPKPKDTLMISRTPEVTCVVVDVSHEDPEVQFNWYVDGVEVHNAKTKPREEQFNSTFRVVSVLTVVHQDWLNGKEYKCKVSNKGLPAPIEKTISKTKGQPREPQVYTLPPSREEMTKNQVSLTCLVKGFYPSDIAVEWESNGQPENNYKTTPPMLDSDGSFFLYSKLTVDKSRWQQGNVFSCSVMHEALHNHYTQKSLSLSPGK
On to B1, for which the “duration of activin-A-neutralizing effect” value in the test with activin-A was “persisted throughout the 14-day study period”. Also, the “serum activin-A levels” value with activin-A (within one day after administration) is recorded as “reduced the elevated activin-A in the inh-KO mice to normal control levels”. In test [1], the testicular tumor mass entry is given as “dramatic regression of testicular tumor masses to the WT control levels”. Also, the “levels of βA transcripts in the tumors” value with activin-A (βA) mRNA is recorded as “completely blocked”. Also, the “growth of TOV-21G xenografts (tumor volume)” value in test [2] is “significantly inhibited the growth”. Also, in test [3], the “active caspase-3 and DNA fragmentation (TUNEL)” value is “profound increases in active caspase-3 and DNA fragmentation”.
